Where a chain is given by its changes, count along the chain named. Names and notes keep the numbering of the source.
B1: Dhr1 (Ecm16) (Saccharomyces cerevisiae S288C) (protein)
chain: MGTYRKRFNEKARSGHMAKLKELKRIRNKQFTRQDENDERVENPDSAPAESSTTEPNANAEILEPLTEEEKKMKKRKLQELFTPKESKVSRLKKKRLDKFIEHQLKREERKTIIGKLQDYKIDTSLLTSSKRLGEGRQTKKEEFKEALSLERQGRGNEQTNEILYEEYEPKVWDEYGEGGSSEDDDGEDDFEASFGSMPKPTDNEEKKSSGFIDHRPAKFGGSGLSFGFSNIKVINKESKTPKKKYNWRQRVEMEELKKHGKEDEMDFDTTSEDDDEEEDQEEEDKMHPSENPLEEVESADSETGSEKFDQNDVANEFKDWANQEIKKLEGRDQELVTPTLNIDYKPIIRKEDLDDGLQEAYVPINENSTRKAFYVEVSRSDEIQKARIQLPVFGEEHKIMEAIHHNDVVIICGETGSGKTTQVPQFLYEAGFGAEDSPDYPGMVGITQPRRVAAVSMAERVANELGDHGHKVGYQIRFDSTAKEDTKVKFMTDGVLLREMMHDFKLTKYSSIIIDEAHERNINTDILIGMLSRCVRLRAKLHKENPIEHKKLKLIIMSATLRVSDFSENKTLFPIAPPVLQVDARQFPVSIHFNRRTAFNYTDEAFRKTCKIHQKLPPGAILVFLTGQQEITHMVKRLRKEFPFKKNSKYNKDLETPVSKMGINSKTTDLEAEDIDFSVQVIDQDKFKSAIRYEEDEGNSGNGEDEEDEEEEGFEEVLTEGQTANDPLYVLPLYSLLPTKEQMRVFQKPPQGSRLCIVATNVAETSLTIPGVRYVVDSGRSKERKYNESNGVQSFEVGWVSKASANQRSGRAGRTGPGHCYRLYSSAVFEHDFEQFSKPEILRMPVESIVLQMKSMAIHNIINFPFPTPPDRVALSKAIQLLQYLGALDNKEMITEDGKKMSLFPLSPRFSKMLLVSDEKACLPYIVAIVSALSVGDPFINEFELGINEISRKPNPDENLDDKIREHDESTPGMDPELKKELRSKFYKSRSQFSKLDKFSDVFRLLSVVSAMDYVPKEQKEIFMKKNFLRGKLMEEIVKLRKQLMYIIKSNTSKENIAVVIRNEDLKSDIPSVIQIKLLKQMICAGFVDHVAVRADVLFPDDAKITNRTSIINIPYIPVLATRTPNIEDCFVYIHPTSILNNLGEMPPKYMLYYSLHLGGNNKTRMNTLCDIASTPLANIARKGLLLTYSKPLTGQGLKTVNLSPTERYCYVVPRFGSTVDNDLKIGWDLNPIAVHQKKQKGQWTVIKFITRKGFQTITGEEKEKK
notes: full-length with C-terminal Leu-Glu-6xHis (pAJ2312), tag kept; expressed in E. coli BL21 Star (DE3), RNase-treated, Ni-NTA and SP HiTrap
B2: Dhr1 (Ecm16) (Saccharomyces cerevisiae S288C; K420A) (protein)
chain: B1 chain with K420A
notes: as for B1
B3: Dhr1 (Ecm16) (Saccharomyces cerevisiae S288C; D516A/E517A) (protein)
chain: B1 chain with D516A, E517A
notes: as for B1

Substrate: Nc1ncnc2c1ncn2[C@@H]1O[C@H](COP(=O)(O)OP(=O)(O)OP(=O)(O)O)[C@@H](O)[C@H]1O
Test: purified protein
Format: biochemical, Saccharomyces cerevisiae
Conditions: poly(A) RNA present, equimolar MgCl2, pH 8.0, room temperature

| Protein | Km [µM] | kcat [s⁻¹] |
| --- | --- | --- |
| B1 | 106 | 0.217 |
| B2 | 1000 | 0.05 |
| B3 | 136 | 0.03 |

— paper PMC4340053, “The DEAH-box Helicase Dhr1 Dissociates U3 from the Pre-rRNA to Promote Formation of the Central Pseudoknot” (PLoS Biology, 2015)
